Reference: patent publication US9878051

Target: fetuin
Experiment: ELISA on coated fetuin, OS-PT at 20 µg/ml, detection with anti-PT serum

## OS-PT conjugate: B. pertussis 186 LOS-derived oligosaccharide coupled to pertussis toxin by reductive amination (oligosaccharide content not specified at the place) (from UniProt P04977 35-269; P04978 28-226; P04979 29-227; P0A3R5 43-152; P04981 35-133)
  absorbance at A405 nm: 0.117 A405 nm
